{
  "source": "paper PMC8172861",
  "about": "“Structural and phylogenetic analyses of resistance to next-generation aminoglycosides conferred by AAC(2′) enzymes” (Scientific Reports, 2021)",
  "assay_in_all_cases": "purified protein",
  "assay_type_in_all_cases": "biochemical, Providencia stuartii",
  "key": {"[1]": {"tested_on": "NC[C@H]1O[C@H](O[C@H]2[C@H](O)[C@@H](O[C@H]3O[C@H](CO)[C@@H](O)[C@H](N)[C@H]3O)[C@H](N)C[C@@H]2N)[C@H](N)C[C@@H]1O", "details": "acetyl-CoA aminoglycoside active site; acetylated at N-2′"}, "[2]": {"tested_on": "CN[C@@H]1[C@@H](O)[C@@H](O[C@@H]2[C@@H](O)[C@H](O[C@H]3OC(CNCCO)=CC[C@H]3N)[C@@H](N)C[C@H]2NC(=O)[C@@H](O)CCN)OC[C@]1(C)O", "details": "acetyl-CoA (S)-HABA tail hydrogen bonds with Glu149 and Asp176"}, "[3]": {"tested_on": "CCN[C@@H]1C[C@H](N)[C@@H](O[C@H]2OC(CN)=CC[C@H]2N)[C@H](O)[C@H]1O[C@H]1OC[C@](C)(O)[C@H](NC)[C@H]1O", "details": "acetyl-CoA aminoglycoside active site; acetylated at N-2′"}},
  "data": [
    {"substance": "AAC(2′)-Ia (Providencia stuartii)", "values": [
      {"measurement": "Km", "setting": "[1]", "result": "14.5 ± 1.7", "unit": "µM"},
      {"measurement": "kcat", "setting": "[1]", "result": "5.04 ± 0.17", "unit": "s⁻¹"},
      {"measurement": "kcat/Km", "setting": "[1]", "result": "348000 ± 51000", "unit": "M⁻¹ s⁻¹"},
      {"measurement": "Km", "setting": "[2]", "result": "19.1 ± 2.5", "unit": "µM"},
      {"measurement": "kcat", "setting": "[2]", "result": "1.42 ± 0.05", "unit": "s⁻¹"},
      {"measurement": "kcat/Km", "setting": "[2]", "result": "74000 ± 12000", "unit": "M⁻¹ s⁻¹"},
      {"measurement": "Km", "setting": "[3]", "result": "19.9 ± 1.3", "unit": "µM"},
      {"measurement": "kcat", "setting": "[3]", "result": "6.05 ± 0.13", "unit": "s⁻¹"},
      {"measurement": "kcat/Km", "setting": "[3]", "result": "304000 ± 26000", "unit": "M⁻¹ s⁻¹"}
    ]}
  ]
}
